The target in experiment [1] is T1, Anti-CD28 Fab (SEQ ID NOs: 696, 697).
T1 construct: Biotinylated and captured on neutravidin coated plates in the phage ELISA
The experiment can be described thus: phage ELISA on captured anti-CD28 Fab; competitor CD28 antigen pre-incubated in the wells.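 Also: clonal phage supernatants added to wells preloaded with CD28 antigen in blocking buffer, control wells buffer only, bound phage read via HRP-linked anti-M13 antibody.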 On the technique in general: ELISA stands for enzyme-linked immunosorbent assay.
T1 sequence (VH, as listed by the source, chain 1 of 2): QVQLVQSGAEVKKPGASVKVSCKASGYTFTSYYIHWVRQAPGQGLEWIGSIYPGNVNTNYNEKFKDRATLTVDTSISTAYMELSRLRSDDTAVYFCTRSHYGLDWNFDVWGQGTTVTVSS
T1 sequence (VL, as listed by the source, chain 2 of 2): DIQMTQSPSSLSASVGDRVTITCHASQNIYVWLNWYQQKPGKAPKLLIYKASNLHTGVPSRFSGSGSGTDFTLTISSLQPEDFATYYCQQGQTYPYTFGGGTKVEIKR
Experimental: (§1) After panning, phage infected bacteria were plated out and colonies picked into 96 well blocks. Clonal phage was then amplified and separated from bacterial cells via centrifugation.
(§2) Clonal phage were harvested as crude supematants and screened via standard ELISAs. […] Prior to the addition of clonal phage, wells were incubated with blocking buffer and CD28 antigen or blocking buffer alone. Without washing or aspirating, clonal phage supematants were then added to the wells and incubated for a short time. Wells were then washed followed by detection of bound phage using a horse radish conjugated anti-M13 antibody. Clonal phage of interest were then sent for sequence analysis.

The target is the same in experiment [2]. Briefly: phage ELISA; biotinylated anti-CD28 Fab on neutravidin plate, clonal phage supernatant, anti-M13 HRP.
Target sequence in this assay (VH, as listed by the source, chain 1 of 2): as the sequence (VH, as listed by the source, chain 1 of 2) above
Target sequence in this assay (VL, as listed by the source, chain 2 of 2): as the sequence (VL, as listed by the source, chain 2 of 2) above
In experiment [3] the target is T2, Anti-CD28 Fab (SEQ ID NOs: 696, 697).
T2 construct: Biotinylated and captured on neutravidin coated plates in the phage ELISA
Briefly: phage ELISA; biotinylated anti-CD28 Fab on neutravidin plates, bound phage detected with anti-M13 HRP.
T2 sequence (VH, as listed by the source, chain 1 of 2): as the sequence (VH, as listed by the source, chain 1 of 2) above
T2 sequence (VL, as listed by the source, chain 2 of 2): as the sequence (VL, as listed by the source, chain 2 of 2) above
Experimental: as §1, §2

For experiment [4] the target is unchanged. The experiment can be described thus: phage ELISA on anti-CD28 Fab plates; competitor CD28 antigen pre-incubated in the wells.
Target sequence in this assay (VH, as listed by the source, chain 1 of 2): as the sequence (VH, as listed by the source, chain 1 of 2) above
Target sequence in this assay (VL, as listed by the source, chain 2 of 2): as the sequence (VL, as listed by the source, chain 2 of 2) above
Experimental: as §1, §2
Experiment [5] concerns the target Anti-CD28 Fab (SEQ ID NOs: 696, 697). The experiment can be described thus: phage binding ELISA on captured anti-CD28 Fab pre-incubated with CD28 antigen as competitor.
Target sequence in this assay (VH, as listed by the source, chain 1 of 2): as the sequence (VH, as listed by the source, chain 1 of 2) above
Target sequence in this assay (VL, as listed by the source, chain 2 of 2): as the sequence (VL, as listed by the source, chain 2 of 2) above
Experimental: as §1, §2
Experiment [6] has the same target. Briefly: phage binding ELISA; biotinylated anti-CD28 Fab captured on neutravidin plate, clonal phage supernatant, anti-M13 HRP detection.
Target sequence in this assay (VH, as listed by the source, chain 1 of 2): as the sequence (VH, as listed by the source, chain 1 of 2) above
Target sequence in this assay (VL, as listed by the source, chain 2 of 2): as the sequence (VL, as listed by the source, chain 2 of 2) above
Experimental: as §1, §2

Where no end group is shown, it is not given here.

B1: Phage-522 (peptide)
peptide: YCDGHSWEYIGKCL
notes: tested as crude clonal phage supernatant
Take B1: the “Phage binding ELISA, Anti-CD28 Fab signal in the presence of CD28” value in experiment [1] was found to be 0.07. Besides, in experiment [2], the “Phage binding ELISA, Anti-CD28 Fab signal” value is 2.37.

B2: Phage-515 (peptide)
peptide: YCEGHAAEYMAKCL
notes: as for B1
With B2, the “Phage binding ELISA, Anti-CD28 Fab signal in the presence of CD28” value in experiment [1] turned out to be 0.08. Moreover, the “Phage binding ELISA, Anti-CD28 Fab signal” value in experiment [2] worked out at 2.38.

B3: Phage-514 (peptide)
peptide: YCEGHLPEYMWKCL
notes: as for B1
Consider B3, for which, in experiment [1], the “Phage binding ELISA, Anti-CD28 Fab signal in the presence of CD28” value was found to be 0.08. Besides, the “Phage binding ELISA, Anti-CD28 Fab signal” value in experiment [2] was 2.39.
In the case of YCEGHTMEYMWKCL [Phage-542], the “Phage binding ELISA, Anti-CD28 Fab signal” value in experiment [3] stood at 2.31. Further, in experiment [4], the “Phage binding ELISA, Anti-CD28 Fab signal in the presence of CD28” value is 0.07.
In the same order, the values of YCAGHLPEYMPHCI [Phage-543] are 2.31 and 0.09.
In the same order, the values of YCDGHEPQYMLKCL [Phage-540] are 2.32 and 0.12.
As for YCDGHLDEYMAKCL [Phage-546], the “Phage binding ELISA, Anti-CD28 Fab signal” value in experiment [3] was 2.31. In experiment [4], the “Phage binding ELISA, Anti-CD28 Fab signal in the presence of CD28” value turned out to be 0.08.

B4: Phage-518 (peptide)
peptide: YCDGHLPEYMSKCM
notes: as for B1
With B4, the “Phage binding ELISA, Anti-CD28 Fab signal in the presence of CD28” value in experiment [1] is 0.14. For the same molecule, the “Phage binding ELISA, Anti-CD28 Fab signal” value in experiment [2] turned out to be 2.38.

B5: Phage-506 (peptide, not shown: large carriers)
peptide: YCAGHLPEYMDKCL
notes: Clonal phage supernatant of the Peptide-87 optimisation library
Regarding B5, the “Anti-CD28 Fab signal in the presence of CD28 (phage binding ELISA)” value in experiment [5] was 0.12. Moreover, the “Anti-CD28 Fab signal (phage binding ELISA)” value in experiment [6] was 2.42.

B6: Phage-508 (peptide, not shown: large carriers)
peptide: YCAGHLPQYMAKCL
notes: as for B5
With B6, the “Anti-CD28 Fab signal in the presence of CD28 (phage binding ELISA)” value in experiment [5] worked out at 0.17. For the same molecule, the “Anti-CD28 Fab signal (phage binding ELISA)” value in experiment [6] amounted to 2.41.

B7: Phage-513 (peptide)
peptide: YCDGHAPEYMMKCL
notes: as for B1
With B7, in experiment [1], the “Phage binding ELISA, Anti-CD28 Fab signal in the presence of CD28” value is 0.09. For the same molecule, the “Phage binding ELISA, Anti-CD28 Fab signal” value in experiment [2] is 2.39.
For the molecule YCDGHSPEYILKCL [Phage-545], the “Phage binding ELISA, Anti-CD28 Fab signal” value in experiment [3] came out at 2.31. Also, the “Phage binding ELISA, Anti-CD28 Fab signal in the presence of CD28” value in experiment [4] stood at 0.09.
The matching figures for YCDGHSPQYIEKCL [Phage-544]: 2.31 and 0.07.

B8: Phage-509 (peptide, not shown: large carriers)
peptide: YCEGHLPEYMAKCL
modifications: cysteine pairing not given here; also: displayed on phage as fusion to pIII, linker, pIII sequence and order not given here
notes: as for B5
Consider B8, for which the “Anti-CD28 Fab signal in the presence of CD28 (phage binding ELISA)” value in experiment [5] worked out at 0.14. In experiment [6], the “Anti-CD28 Fab signal (phage binding ELISA)” value was determined as 2.41.

B9: Phage-510 (peptide, not shown: large carriers)
peptide: YCEGHLPEYMFKCL
modifications: cysteine pairing not given here; also: displayed on phage as fusion to pIII, linker, pIII sequence and order not given here
notes: as for B5
In the case of B9, the “Anti-CD28 Fab signal in the presence of CD28 (phage binding ELISA)” value in experiment [5] came out at 0.12. Also, the “Anti-CD28 Fab signal (phage binding ELISA)” value in experiment [6] came out at 2.4.

B10: Phage-511 (peptide, not shown: large carriers)
peptide: YCDGHLPQYMAQCL
modifications: cysteine pairing not given here; also: displayed on phage as fusion to pIII, linker, pIII sequence and order not given here
notes: as for B5
In the case of B10, the “Anti-CD28 Fab signal in the presence of CD28 (phage binding ELISA)” value in experiment [5] was determined as 0.2. In addition, the “Anti-CD28 Fab signal (phage binding ELISA)” value in experiment [6] was 2.4.

B11: Phage-524 (peptide)
peptide: YCAGHLPQYMSKCL
notes: as for B1
Regarding B11, the “Phage binding ELISA, Anti-CD28 Fab signal in the presence of CD28” value in experiment [1] amounted to 0.11. Also, in experiment [2], the “Phage binding ELISA, Anti-CD28 Fab signal” value came to 2.37.

B12: Phage-517 (peptide)
peptide: YCAGHMPEYMAKCL
notes: as for B1
Take B12: the “Phage binding ELISA, Anti-CD28 Fab signal in the presence of CD28” value in experiment [1] is 0.11. Besides, the “Phage binding ELISA, Anti-CD28 Fab signal” value in experiment [2] amounted to 2.38.
YCDGHTLEYMWKCL [Phage-547]: in experiment [3], the “Phage binding ELISA, Anti-CD28 Fab signal” value was determined as 2.31. For the same molecule, the “Phage binding ELISA, Anti-CD28 Fab signal in the presence of CD28” value in experiment [4] came to 0.13.

B13: Phage-507 (peptide, not shown: large carriers)
peptide: YCDGHSAEHMAKCL
notes: as for B5
On to B13, for which the “Anti-CD28 Fab signal in the presence of CD28 (phage binding ELISA)” value in experiment [5] is 0.08. Further, the “Anti-CD28 Fab signal (phage binding ELISA)” value in experiment [6] came to 2.41.

B14: Phage-525 (peptide)
peptide: YCDGHLPIYMSQCL
notes: as for B1
As to B14, the “Phage binding ELISA, Anti-CD28 Fab signal in the presence of CD28” value in experiment [1] came to 0.12. The “Phage binding ELISA, Anti-CD28 Fab signal” value in experiment [2] amounted to 2.36.

B15: Phage-519 (peptide)
peptide: YCEGHTAEYMQKCL
notes: as for B1
In the case of B15, in experiment [1], the “Phage binding ELISA, Anti-CD28 Fab signal in the presence of CD28” value worked out at 0.08. Moreover, in experiment [2], the “Phage binding ELISA, Anti-CD28 Fab signal” value was 2.38.

B16: Phage-523 (peptide)
peptide: YCDGHLPEYQEKCL
notes: as for B1
In the case of B16, in experiment [1], the “Phage binding ELISA, Anti-CD28 Fab signal in the presence of CD28” value amounted to 0.1. Also, the “Phage binding ELISA, Anti-CD28 Fab signal” value in experiment [2] amounted to 2.37.
Take YCEGHSPEYMSKCL [Phage-541]: in experiment [3], the “Phage binding ELISA, Anti-CD28 Fab signal” value stood at 2.31. Moreover, the “Phage binding ELISA, Anti-CD28 Fab signal in the presence of CD28” value in experiment [4] was 0.07.

B17: Phage-504 (peptide, not shown: large carriers)
peptide: YCEGHLPQYMWKCL
notes: as for B5
As to B17, in experiment [5], the “Anti-CD28 Fab signal in the presence of CD28 (phage binding ELISA)” value was found to be 0.17. The “Anti-CD28 Fab signal (phage binding ELISA)” value in experiment [6] turned out to be 2.44.

B18: Phage-512 (peptide, not shown: large carriers)
peptide: YCEGHLPQYMQKCL
modifications: cysteine pairing not given here; also: displayed on phage as fusion to pIII, linker, pIII sequence and order not given here
notes: as for B5
As for B18, in experiment [5], the “Anti-CD28 Fab signal in the presence of CD28 (phage binding ELISA)” value was 0.12. The “Anti-CD28 Fab signal (phage binding ELISA)” value in experiment [6] is 2.39.

B19: Phage-520 (peptide)
peptide: YCMGHAPEYMAKCL
notes: as for B1
As to B19, in experiment [1], the “Phage binding ELISA, Anti-CD28 Fab signal in the presence of CD28” value stood at 0.09. For the same molecule, the “Phage binding ELISA, Anti-CD28 Fab signal” value in experiment [2] was 2.38.

B20: Phage-516 (peptide)
peptide: YCDGHLPEYLAKCL
notes: as for B1
As to B20, in experiment [1], the “Phage binding ELISA, Anti-CD28 Fab signal in the presence of CD28” value was 0.11. Besides, the “Phage binding ELISA, Anti-CD28 Fab signal” value in experiment [2] turned out to be 2.38.

B21: Phage-521 (peptide)
peptide: YCDGHLPEYMAKCL
notes: as for B1
In the case of B21, in experiment [1], the “Phage binding ELISA, Anti-CD28 Fab signal in the presence of CD28” value was 0.13. For the same molecule, the “Phage binding ELISA, Anti-CD28 Fab signal” value in experiment [2] came out at 2.37.

The record behind these values is patent US20260242478A1 (published 2026).
